Results from PMC7884335.

Tests used:
Settings in all cases: EMSA: Tris-HCl pH 8.0, MgCl2, NaCl, EDTA, 1 mM DTT, 0.01% NP-40, 50 ug/ml poly[d(I-C)], glycerol (masses given, total volume not stated), room temperature …
[1] = biological target: T1, His-RegX3 (Msm) (Mycobacterium smegmatis MC2 155) (UniProt Q9F868); assay: EMSA
T1 sequence: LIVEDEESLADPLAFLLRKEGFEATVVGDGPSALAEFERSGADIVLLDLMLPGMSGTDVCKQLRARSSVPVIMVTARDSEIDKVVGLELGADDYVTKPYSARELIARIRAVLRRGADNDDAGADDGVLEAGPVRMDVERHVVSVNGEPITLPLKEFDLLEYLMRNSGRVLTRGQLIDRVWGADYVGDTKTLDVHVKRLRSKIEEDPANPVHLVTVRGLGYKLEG

[2] = test system: His-PrpR (Msm) (Mycobacterium smegmatis MC2 155); assay: BLI
[3] = test system: His-RegX3 (Msm) (Mycobacterium smegmatis MC2 155); assay: BLI

Substance | binding [1] | Kd [2] [nM] | Kd [3] [nM]
AGCCAGTGGCGATAAGACACACAGCCTAACCGCGATTCTTACACAGGATTTGCAAAGGCTGGCCCACCAGGACACAAAACTACGCATATACAGGCTCTTTACGTGCCATTAGGGGCCTTATCGCCACTGGCT (double strand) [PprpR-3] | binds | – | –
prpR promoter probe for BLI (Msm) | – | 53.2 | 165
